The values below come from publication PMC2866327, “Designed Inhibitors of Insulin-Degrading Enzyme Regulate the Catabolism and Activity of Insulin” (PLoS ONE, 2010).

For the assay, the target named is T1, insulin-degrading enzyme (recombinant human IDE) (human, UniProt P14735 1-1019).
T1 construct: insulin-degrading enzyme, human, recombinant; source: recombinant, purified from bacteria [33]
As to the kind of experiment: enzyme inhibition assay (Ki); recombinant human IDE (nominal 1 nM); dose-response of the hydrolysis of IDE substrates (FRET1, SP1, FAβB, 125I-insulin, or insulin by HTRF); the substrate used for the Ki values in the text is not stated. The conditions noted are these: both partners purified. On the technique in general: Time-resolved FRET reads energy transfer from a long-lived donor to a nearby acceptor.

Square brackets hold non-standard residues; d marks the D form. Ends that are not written are not given here. 2Nal = N[C@@H](Cc1ccc2ccccc2c1)C(=O)O; d2Nal = N[C@H](Cc1ccc2ccccc2c1)C(=O)O

A word on the Ki: it is a measure of affinity in units of concentration, obtained from inhibition or displacement. On to [2Nal]RWE (also: N-terminal hydroxamic acid moiety, structure not given here) [Ii1 (IDE inhibitor 1), conventional peptide hydroxamate incorporating 2-Nap at the P1' position], for which the Ki is ~1.7 nM.

B1: retro-inverso peptide hydroxamate Xaa-Arg-Tyr with 2-naphthylalanine (2-Nap) at P1' (peptide)
chain: [d2Nal]-[dR]-[dY]
modifications: also: retro-inverso backbone, hydroxamic acid next to P1', P1' said to be a β-amino acid
Take B1: the “fold gain in potency (relative Ki) against Phe at P1'” value was ~100 fold.
